According to the supplement of paper PMC9732359:
± gives the uncertainty stated by the source.

Test: protein stability index of a GFP-peptide fusion (yeast GPS) (PSI 1-4); higher = more stable; sorted into four equal gates, so the index is relative within each strain
Procedure, shortened: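 Mid-log yeast cultures in leucine-free medium, carrying a pooled plasmid library, were sorted into four equal gates by their GFP/Cherry fluorescence ratio. Each plasmid expressed Cherry along with GFP fused upstream of a tiled 17-residue yeast protein peptide. Plasmids recovered from each gate were PCR-amplified and Illumina-sequenced, with reads assigned to strains by barcodes. The protein stability index was obtained by summing each gate's read frequency weighted by its gate number.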

Sequence	protein stability index (doa10∆)	protein stability index (pdr5∆)	protein stability index (san1∆)	protein stability index (ubr1∆)
IDEKSQFVETIVSKSIE [RPN2]	1.68 ± 0.1	2.19 ± 0.1	1.64 ± 0.096	1.98 ± 0.089
TSKMNLSEDVNLETLVT [RPT2]	2.6 ± 0.14	2.85 ± 0.16	2.62 ± 0.15	2.78 ± 0.11
KKIMDETPSRLLLSPDQ [ITC1]	3.04 ± 0.056	3.37 ± 0.065	3.21 ± 0.078	3.33 ± 0.041
ITSWYENHNKGKLWKDV [QCR9]	2.81 ± 0.21	3.14 ± 0.23	3.3 ± 0.1	3.21 ± 0.13
DNDFIINDFKKIGRENE [POP5]	3.33 ± 0.071	3.38 ± 0.072	3.3 ± 0.057	3.35 ± 0.047
IAYSDSQSSNANICLTF [SIN4]	2.74 ± 0.1	2.7 ± 0.065	2.38 ± 0.081	2.89 ± 0.069
KSIDSKTPEEVEVYAKI [ISW2]	1.88 ± 0.078	–	2.88 ± 0.14	3.01 ± 0.12
SPHYNSQKQTLIKKPLT [SSN3]	2.52 ± 0.064	2.87 ± 0.056	2.46 ± 0.058	2.65 ± 0.036
SLSFGSGSAGANPAGAS [YJL041W/NSP1]	2.92 ± 0.13	2.89 ± 0.13	2.75 ± 0.18	3.1 ± 0.085
YIQRRLVKALEDIMVHY [RPO21]	1.77 ± 0.049	2.11 ± 0.051	1.4 ± 0.075	2.05 ± 0.055
QKNYADPEKDSINATAL [SIN4]	1.9 ± 0.042	1.71 ± 0.047	1.61 ± 0.087	1.59 ± 0.032
VHDLNKYKSNTNNMEKI [SMC2]	3.46 ± 0.17	3.58 ± 0.14	3.02 ± 0.15	3.47 ± 0.24
RGTDIDRINYTETALMN [SRB5]	3.02 ± 0.26	2.98 ± 0.11	2.69 ± 0.082	2.73 ± 0.12
KTEDGFVIPALPAAVSK [RPC82]	–	2.41 ± 0.26	–	2.8 ± 0.2
SLRTPIAPKITPKVVRS [SEC65]	3.16 ± 0.093	3.05 ± 0.063	2.87 ± 0.1	3.17 ± 0.059
HSNLEKISNSKLLSLLR [SIR4]	2.4 ± 0.063	2.65 ± 0.052	2.5 ± 0.051	2.48 ± 0.047
QTATQLLERGRLRKRVT [SMC2]	3.04 ± 0.11	3.04 ± 0.083	2.92 ± 0.064	2.42 ± 0.078
IHEIRLNTLNNVVEIWV [SIR3]	1.38 ± 0.051	1.44 ± 0.046	1.46 ± 0.086	1.55 ± 0.038
IVLLDDEGKEIPATIFD [TAF14]	2.82 ± 0.06	3.07 ± 0.048	3.04 ± 0.035	3.06 ± 0.05
SKSESDSQIVTPGELVT [RRP4]	3.07 ± 0.11	3.17 ± 0.066	2.88 ± 0.077	2.83 ± 0.066

Sequence	protein stability index (doa10∆)	protein stability index (pdr5∆)	protein stability index (san1∆)	protein stability index (ubr1∆)
LLINTNFNKFFKIWHGE [PCI8]	1.37 ± 0.04	1.38 ± 0.04	1.57 ± 0.061	1.37 ± 0.044
SNVFGSNNSTTNTFGSN [YJL041W/NSP1]	3.08 ± 0.063	3.44 ± 0.076	3.22 ± 0.043	3.47 ± 0.054
NYTGWKAISVGANTSAA [PRE9]	1.23 ± 0.079	1.36 ± 0.076	1.24 ± 0.2	1.17 ± 0.062
PSRQFDHYESNQLVAKL [SRB8]	3.02 ± 0.061	2.85 ± 0.064	2.98 ± 0.064	3.17 ± 0.041
ARENAPSIIFIDEVDSI [RPT3]	2.75 ± 0.14	2.46 ± 0.11	2.74 ± 0.06	2.41 ± 0.066
SNGNNLPLNKPRLEKLI [RGR1]	3.27 ± 0.052	3.36 ± 0.056	3.18 ± 0.055	3.16 ± 0.063
EKTGKSASLKKIQQHNT [BRR2]	–	2.96 ± 0.2	–	–
EVGMKVQSGQIYINKSV [RET1]	2.83 ± 0.074	3.05 ± 0.073	2.6 ± 0.082	3.08 ± 0.069
DTKKVKESPANDQASNE [YIL149C/MLP2]	3.17 ± 0.13	3.29 ± 0.1	3.12 ± 0.2	3.15 ± 0.19
IDMHLIYGVEWLIEGKL [YDL116W/NUP84]	2.64 ± 0.17	2.58 ± 0.093	–	2.33 ± 0.099
LKIIHTSVWAGQKRLSQ [PRP8]	1.36 ± 0.15	1.31 ± 0.12	–	1.48 ± 0.23
GFIFTSMILEAISTDKI [RRI2]	1.35 ± 0.082	1.27 ± 0.072	1.26 ± 0.13	1.51 ± 0.083
MANIPERIINVGVIGPL [SNU114]	2.18 ± 0.28	2.79 ± 0.16	–	3.07 ± 0.077
QDIYYLAQTLKLWRKIA [RRI2]	2.04 ± 0.057	2.17 ± 0.046	1.88 ± 0.07	1.63 ± 0.047
VPQSEETRAELSQLCAV [RPO21]	2.37 ± 0.067	3.02 ± 0.065	2.79 ± 0.067	3.09 ± 0.061
MFRNNYDGDTVTFSPTG [PRE5]	2.41 ± 0.12	2.84 ± 0.096	2.52 ± 0.11	3.18 ± 0.073
ELKEITSLPDWCQEAFP [BRR2]	2.86 ± 0.069	2.73 ± 0.076	3.11 ± 0.064	3.08 ± 0.046
NLWKNIFLSKENSAVAA [COR1]	1.85 ± 0.053	2.24 ± 0.059	2.01 ± 0.13	1.61 ± 0.063
YSLIRETNGYDPFSIYG [SNF5]	1.23 ± 0.056	1.31 ± 0.088	1.15 ± 0.18	1.06 ± 0.084
